In patent US20050048634:

Target: oligo-nucleosomes purified from HeLa cells or chicken blood cells

B1: hDOT1L(1-416) (protein)
chain: MGEKLELRLKSPVGAEPAVYPWPLPVYDKHHDAAHEIIETIRWVCEEIPDLKLAMENYVLIDYDTKSFESMQRLCDKYNRAIDSIHQLWKGTTQPMKLNTRPSTGLLRHILQQVYNHSVTDPEKLNNYEPFSPEVYGETSFDLVAQMIDEIKMTDDDLFVDLGSGVGQVVLQVAAATNCKHHYGVEKADIPAKYAETMDREFRKWMKWYGKKHAEYTLERGDFLSEEWRERIANTSVIFVNNFAFGPEVDHQLKERFANMKEGGRIVSSKPFAPLNFRINSRNLSDIGTIMRVVELSPLKGSVSWTGKPVSYYLHTIDRTILENYFSSLKNPKLREEQEAARRRQQRESKSNAATPTKGPEGKVAGPADAPMDSGAEEEKAGAATVKKPSPSKARKKKLNKKGRKMAGRKRGRPKK
For B1, the “HMTase activity in the presence of increasing concentrations (1.5, 15, 150 uM) of the competitor peptide C-RS10 (SEQ ID NO:20)” value was “effectively competed with increasing concentrations of the peptide”.

B2: hDOT1L(1-416) Δ(376-390) (protein)
chain: MGEKLELRLKSPVGAEPAVYPWPLPVYDKHHDAAHEIIETIRWVCEEIPDLKLAMENYVLIDYDTKSFESMQRLCDKYNRAIDSIHQLWKGTTQPMKLNTRPSTGLLRHILQQVYNHSVTDPEKLNNYEPFSPEVYGETSFDLVAQMIDEIKMTDDDLFVDLGSGVGQVVLQVAAATNCKHHYGVEKADIPAKYAETMDREFRKWMKWYGKKHAEYTLERGDFLSEEWRERIANTSVIFVNNFAFGPEVDHQLKERFANMKEGGRIVSSKPFAPLNFRINSRNLSDIGTIMRVVELSPLKGSVSWTGKPVSYYLHTIDRTILENYFSSLKNPKLREEQEAARRRQQRESKSNAATPTKGPEGKVAGPADAPMDSGPSKARKKKLNKKGRKMAGRKRGRPKK
For B2, the “HMTase activity in the presence of increasing concentrations (1.5, 15, 150 uM) of the competitor peptide C-RS10 (SEQ ID NO:20)” value was “effectively competed with increasing concentrations of the peptide”.
